Assay results published in publication PMC5461814.

Legend:
[1] = target: Dityrosine cross-linked Aβ42 dimer [Aβ(M1-42)]DiY; assay: centrifugation with thioflavin T read-out
[2] = target: Dityrosine cross-linked Aβ42 dimer [Aβ(M1-42)]DiY; assay: SEC

## Dityrosine cross-linked Aβ42 dimer [Aβ(M1-42)]DiY (peptide)
[1]
  ThT signal of the end-stage sample removed by centrifugation: 80%
[2]
  decrease of the dimer peak at t = max: 40%
